Where a chain is given by its changes, count along the chain named. Names and notes keep the numbering of the source.
T1: CgDHQD (Corynebacterium glutamicum, UniProt O52377)
T1 construct: gene aroQ; full length in pET30a (NdeI/XhoI), C-terminal 6xHis tag not reported cut, E. coli BL21(DE3); by primers starts MPGKILLLN, ends DILANLKK before tag
T1 sequence (O52377 1-145): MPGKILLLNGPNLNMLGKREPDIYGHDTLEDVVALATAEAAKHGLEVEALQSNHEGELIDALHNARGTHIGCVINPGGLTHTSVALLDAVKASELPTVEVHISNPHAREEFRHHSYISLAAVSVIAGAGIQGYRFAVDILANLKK

B1: 3-dehydroquinate dehydratase from Corynebacterium glutamicum, wild type (enzyme, Corynebacterium glutamicum ATCC 13032, UniProt O52377 1-145, looked up)
chain: T1 sequence (O52377 1-145)
notes: 3-dehydroquinate dehydratase (type II DHQD, EC 4.2.1.10) of Corynebacterium glutamicum ATCC 13032; The XhoI site of pET30a probably adds LE before the His tag (surmised); also called CgDHQD; CgDHQD^WT; source: E. coli BL21 (DE3)-T1R, purified (Ni-NTA, HiTrap Q ion exchange, size exclusion); copies: 12
B2: CgDHQD (Corynebacterium glutamicum ATCC 13032; S103T) (protein)
chain: T1 sequence (O52377 1-145) with S103T
notes: full length in pET30a (NdeI/XhoI), C-terminal 6xHis tag not reported cut, E. coli BL21(DE3); by primers starts MPGKILLLN, ends DILANLKK before tag
B3: 3-dehydroquinate dehydratase from Corynebacterium glutamicum, R19A variant (enzyme, Corynebacterium glutamicum ATCC 13032, UniProt O52377 1-145, looked up)
chain: T1 sequence (O52377 1-145) with R19A
notes: also called CgDHQD^R19A; source: E. coli BL21 (DE3)-T1R, purified in the same manner as wild type (Ni-NTA, ion exchange, size exclusion)

Tests used:
[1] = target: T1, CgDHQD; experiment: X-ray crystal structure, […] A, co-crystallised; conditions: active site, two binding modes; 0.2 M ammonium citrate tribasic pH 7.0 in the crystallisation solution
[2] = target: T2, CgDHQD (Corynebacterium glutamicum, UniProt O52377, R19A); experiment: X-ray crystal structure, […] A, crystal soaked with […] DHQ; type: binding; conditions: active site; inactive variant; glycerol occupies the R19 side-chain space; pH 5.5
T2 construct: gene aroQ; full length in pET30a (NdeI/XhoI), C-terminal 6xHis tag not reported cut, E. coli BL21(DE3); by primers starts MPGKILLLN, ends DILANLKK before tag

[3] = substrate: O=C1C[C@@](O)(C(=O)O)C[C@@H](O)[C@@H]1O; experiment: purified protein; type: biochemical, Corynebacterium glutamicum; conditions: 50 mM Tris-HCl pH 8.0, room temperature, 20 nM enzyme, 50-2,000 uM substrate
[4] = target: the molecule itself; experiment: SEC; analytical size-exclusion chromatography, Superdex 200 Increase 10/300 GL, 150 mM NaCl, 40 mM Tris-HCl pH 8.0, 1 ml of 1 mg/ml protein, 277 K; calibrated with aldolase, ovalbumin, ribonuclease A, aprotinin
[5] = target: the molecule itself; experiment: crystal structure; CgDHQD R19A, 0.8 M lithium sulfate, 0.4 M ammonium sulfate, 0.1 M sodium citrate pH 5.5, soaked with 100 mM DHQ; space group C2221, six molecules per asymmetric unit, 2.0 Å

T2 sequence (O52377 whole entry R19A): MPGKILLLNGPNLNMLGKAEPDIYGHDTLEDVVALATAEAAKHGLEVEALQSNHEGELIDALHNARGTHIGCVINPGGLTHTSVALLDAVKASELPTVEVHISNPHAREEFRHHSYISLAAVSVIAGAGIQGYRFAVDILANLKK

Molecule | Km [3] | kcat [3] | further results
O=C(O)CC(O)(CC(=O)O)C(=O)O [citrate] |  |  | X-ray crystal structure, 1.80 A, co-crystallised [1]: CgDHQD structure in complex with the citrate ion exhibits two different binding modes
O=C1C[C@@](O)(C(=O)O)C[C@@H](O)[C@@H]1O [DHQ, 3-dehydroquinic acid] |  |  | X-ray crystal structure, 2.00 A, crystal soaked with 100 mM DHQ [2]: The DHQ-bound structure of CgDHQD explained the substrate-binding mode of the enzyme
B1 | 348.20 µM | 150.19 s⁻¹ | stoichiometry N [4]: 12
B2 | 745.3 µM | 199.67 s⁻¹ | 
B3 |  |  | binding result [5]: binds
